Assay results reported in paper PMC4432310, “Different Ligands of the TRPV3 Cation Channel Cause Distinct Conformational Changes as Revealed by Intrinsic Tryptophan Fluorescence Quenching*” (The Journal of Biological Chemistry, 2015).

B1: human TRPV3 fused to C-terminal GFP and His8 tag (natural protein, UniProt Q8NET8 1-790, looked up)
chain: MKAHPKEMVPLMGKRVAAPSGNPAILPEKRPAEITPTKKSAHFFLEIEGFEPNPTVAKTSPPVFSKPMDSNIRQCISGNCDDMDSPQSPQDDVTETPSNPNSPSAQLAKEEQRRKKRRLKKRIFAAVSEGCVEELVELLVELQELCRRRHDEDVPDFLMHKLTASDTGKTCLMKALLNINPNTKEIVRILLAFAEENDILGRFINAEYTEEAYEGQTALNIAIERRQGDIAALLIAAGADVNAHAKGAFFNPKYQHEGFYFGETPLALAACTNQPEIVQLLMEHEQTDITSRDSRGNNILHALVTVAEDFKTQNDFVKRMYDMILLRSGNWELETTRNNDGLTPLQLAAKMGKAEILKYILSREIKEKRLRSLSRKFTDWAYGPVSSSLYDLTNVDTTTDNSVLEITVYNTNIDNRHEMLTLEPLHTLLHMKWKKFAKHMFFLSFCFYFFYNITLTLVSYYRPREEEAIPHPLALTHKMGWLQLLGRMFVLIWAMCISVKEGIAIFLLRPSDLQSILSDAWFHFVFFIQAVLVILSVFLYLFAYKEYLACLVLAMALGWANMLYYTRGFQSMGMYSVMIQKVILHDVLKFLFVYIVFLLGFGVALASLIEKCPKDNKDCSSYGSFSDAVLELFKLTIGLGDLNIQQNSKYPILFLFLLITYVILTFVLLLNMLIALMGETVENVSKESERIWRLQRARTILEFEKMLPEWLRSRFRMGELCKVAEDDFRLCLRINEVKWTEWKTHVSFLNEDPGPVRRTDFNKIQDSSRNNSKTTLNAFEEVEEFPETSV
notes: human TRPV3 (transient receptor potential vanilloid 3), full-length; theoretical mass of the monomer printed as 90.6 kDa; A PreScission cleavage site lies between TRPV3 and GFP-His8; The fusion is uncleaved in the FSEC runs; also called hTRPV3-GFP; hTRPV3; source: Sf9 insect cells (baculovirus), detergent-solubilized crude membranes, not purified; not shown: GFP, C-terminal, kept
B2: human TRPV3, detergent-purified, GFP-His tag cleaved off (natural protein, UniProt Q8NET8 1-790, looked up)
chain: B1 chain
notes: human TRPV3 (transient receptor potential vanilloid 3), full-length; theoretical mass of the monomer printed as 90.6 kDa; also called hTRPV3; detergent-purified hTRPV3; source: Sf9 insect cells (baculovirus), purified (GFP trap, PreScission cleavage, SEC) in DDM and CHAPS; not shown: GFP, C-terminal, cleaved; His8, C-terminal, cleaved

Key:
[1] = target: the molecule itself; experiment: SEC; fluorescence detection SEC (FSEC) of detergent-solubilized crude Sf9 membranes on Superose 6 10/300 GL; buffer A (200 mM NaCl, 50 mM Tris, pH 7.5) with DM, DDM or LDAO at ~1.5 x CMC; oligomer judged from the retention volume
[2] = target: the molecule itself; experiment: SEC; UV detection SEC of hTRPV3 eluted from the GFP trap, Superose 6 10/300 GL; buffer B (100 mM NaCl, 10 mM Tris, pH 7.5) with 0.03% DDM and 0.1% CHAPS

| Protein | stoichiometry N [1] | stoichiometry N [2] |
| --- | --- | --- |
| B1 | 4 |  |
| B2 |  | 4 |
